Measurements as given in the supplement of paper PMC10567573.

B1: FBF1 (parent)
chain: YQRPQDSEDMWGDEDFTFGAYQPT

Variants of: B1
Assay: protein stability index of a GFP-peptide fusion (GPS, HEK-293T) (PSI 1-6); higher = more stable
Conditions: c terminus: a fixed tail appended
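Note: lentivirally expressed fusions sorted by FACS into six bins by GFP to DsRed ratio, PSI derived from sequencing read proportions per bin multiplied by bin number.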

Variant	protein stability index
YYRPQDSEDMWGDEDFTFGAYQPT [Q2Y]	3.65
YRRPQDSEDMWGDEDFTFGAYQPT [Q2R]	3.83
YLRPQDSEDMWGDEDFTFGAYQPT [Q2L]	3.45
YKRPQDSEDMWGDEDFTFGAYQPT [Q2K]	3.81
YTRPQDSEDMWGDEDFTFGAYQPT [Q2T]	3.54
YMRPQDSEDMWGDEDFTFGAYQPT [Q2M]	3.56
YGRPQDSEDMWGDEDFTFGAYQPT [Q2G]	3.76
YFRPQDSEDMWGDEDFTFGAYQPT [Q2F]	3.25
YERPQDSEDMWGDEDFTFGAYQPT [Q2E]	4.26
YPRPQDSEDMWGDEDFTFGAYQPT [Q2P]	3.05
YNRPQDSEDMWGDEDFTFGAYQPT [Q2N]	3.14
YHRPQDSEDMWGDEDFTFGAYQPT [Q2H]	2.21
YCRPQDSEDMWGDEDFTFGAYQPT [Q2C]	2.7
YVRPQDSEDMWGDEDFTFGAYQPT [Q2V]	1.78
YIRPQDSEDMWGDEDFTFGAYQPT [Q2I]	2.08
YDRPQDSEDMWGDEDFTFGAYQPT [Q2D]	4.81
YSRPQDSEDMWGDEDFTFGAYQPT [Q2S]	3.53
YARPQDSEDMWGDEDFTFGAYQPT [Q2A]	2.79
YWRPQDSEDMWGDEDFTFGAYQPT [Q2W]	2.38
YQRPQDSEDKWGDEDFTFGAYQPT [M10K]	3.72
YQRPQDSEDGWGDEDFTFGAYQPT [M10G]	3.96
YQRPQDSEDSWGDEDFTFGAYQPT [M10S]	3.5
YQRPQDSEDAWGDEDFTFGAYQPT [M10A]	4.18
YQRPQDSEDQWGDEDFTFGAYQPT [M10Q]	3.71

Variant	protein stability index
YQRPQDSEDTWGDEDFTFGAYQPT [M10T]	3.73
YQRPQDSEDVWGDEDFTFGAYQPT [M10V]	2.75
YQRPQDSEDEWGDEDFTFGAYQPT [M10E]	4.53
YQRPQDSEDRWGDEDFTFGAYQPT [M10R]	3.66
YQRPQDSEDFWGDEDFTFGAYQPT [M10F]	1.86
YQRPQDSEDCWGDEDFTFGAYQPT [M10C]	3.23
YQRPQDSEDNWGDEDFTFGAYQPT [M10N]	4.06
YQRPQDSEDLWGDEDFTFGAYQPT [M10L]	2.25
YQRPQDSEDIWGDEDFTFGAYQPT [M10I]	2.39
YQRPQDSEDHWGDEDFTFGAYQPT [M10H]	3.47
YQRPQDSEDDWGDEDFTFGAYQPT [M10D]	4.06
YQRPQDSEDPWGDEDFTFGAYQPT [M10P]	3.34
LQRPQDSEDMWGDEDFTFGAYQPT [Y1L]	3.87
NQRPQDSEDMWGDEDFTFGAYQPT [Y1N]	4.62
SQRPQDSEDMWGDEDFTFGAYQPT [Y1S]	4.52
IQRPQDSEDMWGDEDFTFGAYQPT [Y1I]	3.95
DQRPQDSEDMWGDEDFTFGAYQPT [Y1D]	4.87
HQRPQDSEDMWGDEDFTFGAYQPT [Y1H]	4.76
TQRPQDSEDMWGDEDFTFGAYQPT [Y1T]	4.66
WQRPQDSEDMWGDEDFTFGAYQPT [Y1W]	3.93
AQRPQDSEDMWGDEDFTFGAYQPT [Y1A]	4.84
RQRPQDSEDMWGDEDFTFGAYQPT [Y1R]	3.94
QQRPQDSEDMWGDEDFTFGAYQPT [Y1Q]	4.23
PQRPQDSEDMWGDEDFTFGAYQPT [Y1P]	4.71

Variant	protein stability index
MQRPQDSEDMWGDEDFTFGAYQPT [Y1M]	4.6
VQRPQDSEDMWGDEDFTFGAYQPT [Y1V]	3.92
KQRPQDSEDMWGDEDFTFGAYQPT [Y1K]	4.24
EQRPQDSEDMWGDEDFTFGAYQPT [Y1E]	4.84
GQRPQDSEDMWGDEDFTFGAYQPT [Y1G]	4.79
CQRPQDSEDMWGDEDFTFGAYQPT [Y1C]	3.54
FQRPQDSEDMWGDEDFTFGAYQPT [Y1F]	2.58
YQHPQDSEDMWGDEDFTFGAYQPT [R3H]	3.49
YQDPQDSEDMWGDEDFTFGAYQPT [R3D]	4.36
YQAPQDSEDMWGDEDFTFGAYQPT [R3A]	3.44
YQMPQDSEDMWGDEDFTFGAYQPT [R3M]	3.2
YQFPQDSEDMWGDEDFTFGAYQPT [R3F]	3.12
YQLPQDSEDMWGDEDFTFGAYQPT [R3L]	3.46
YQNPQDSEDMWGDEDFTFGAYQPT [R3N]	3.71
YQEPQDSEDMWGDEDFTFGAYQPT [R3E]	4.79
YQQPQDSEDMWGDEDFTFGAYQPT [R3Q]	4.01
YQGPQDSEDMWGDEDFTFGAYQPT [R3G]	3.4
YQCPQDSEDMWGDEDFTFGAYQPT [R3C]	3.12
YQIPQDSEDMWGDEDFTFGAYQPT [R3I]	2.87
YQTPQDSEDMWGDEDFTFGAYQPT [R3T]	2.62
YQYPQDSEDMWGDEDFTFGAYQPT [R3Y]	3.09
YQWPQDSEDMWGDEDFTFGAYQPT [R3W]	2.82
YQKPQDSEDMWGDEDFTFGAYQPT [R3K]	3.64
YQSPQDSEDMWGDEDFTFGAYQPT [R3S]	3.11

Variant	protein stability index
YQVPQDSEDMWGDEDFTFGAYQPT [R3V]	3.5
YQPPQDSEDMWGDEDFTFGAYQPT [R3P]	3.87
YQRPQFSEDMWGDEDFTFGAYQPT [D6F]	1.68
YQRPQISEDMWGDEDFTFGAYQPT [D6I]	1.98
YQRPQTSEDMWGDEDFTFGAYQPT [D6T]	2.53
YQRPQLSEDMWGDEDFTFGAYQPT [D6L]	2.17
YQRPQQSEDMWGDEDFTFGAYQPT [D6Q]	2.26
YQRPQRSEDMWGDEDFTFGAYQPT [D6R]	2.04
YQRPQMSEDMWGDEDFTFGAYQPT [D6M]	2.32
YQRPQSSEDMWGDEDFTFGAYQPT [D6S]	2.24
YQRPQWSEDMWGDEDFTFGAYQPT [D6W]	1.64
YQRPQKSEDMWGDEDFTFGAYQPT [D6K]	1.94
YQRPQHSEDMWGDEDFTFGAYQPT [D6H]	1.84
YQRPQESEDMWGDEDFTFGAYQPT [D6E]	2.59
YQRPQCSEDMWGDEDFTFGAYQPT [D6C]	2.06
YQRPQGSEDMWGDEDFTFGAYQPT [D6G]	1.77
YQRPQNSEDMWGDEDFTFGAYQPT [D6N]	2.25
YQRPQPSEDMWGDEDFTFGAYQPT [D6P]	2.3
YQRPQYSEDMWGDEDFTFGAYQPT [D6Y]	2.06
YQRPQVSEDMWGDEDFTFGAYQPT [D6V]	2.12
YQRPQASEDMWGDEDFTFGAYQPT [D6A]	2.05
YQRPQDSMDMWGDEDFTFGAYQPT [E8M]	2.42
YQRPQDSRDMWGDEDFTFGAYQPT [E8R]	1.58
YQRPQDSGDMWGDEDFTFGAYQPT [E8G]	1.98

Variant	protein stability index
YQRPQDSADMWGDEDFTFGAYQPT [E8A]	1.9
YQRPQDSQDMWGDEDFTFGAYQPT [E8Q]	1.81
YQRPQDSLDMWGDEDFTFGAYQPT [E8L]	2.1
YQRPQDSKDMWGDEDFTFGAYQPT [E8K]	1.78
YQRPQDSFDMWGDEDFTFGAYQPT [E8F]	2.13
YQRPQDSPDMWGDEDFTFGAYQPT [E8P]	1.65
YQRPQDSTDMWGDEDFTFGAYQPT [E8T]	2.29
YQRPQDSHDMWGDEDFTFGAYQPT [E8H]	2.01
YQRPQDSIDMWGDEDFTFGAYQPT [E8I]	1.95
YQRPQDSDDMWGDEDFTFGAYQPT [E8D]	2.47
YQRPQDSVDMWGDEDFTFGAYQPT [E8V]	1.7
YQRPQDSSDMWGDEDFTFGAYQPT [E8S]	2.32
YQRPQDSCDMWGDEDFTFGAYQPT [E8C]	1.99
YQRPQDSNDMWGDEDFTFGAYQPT [E8N]	2
YQRPQDSYDMWGDEDFTFGAYQPT [E8Y]	2.31
YQRPQDSWDMWGDEDFTFGAYQPT [E8W]	1.58
YQRPQDVEDMWGDEDFTFGAYQPT [S7V]	2.82
YQRPQDDEDMWGDEDFTFGAYQPT [S7D]	3.68
YQRPQDHEDMWGDEDFTFGAYQPT [S7H]	2.58
YQRPQDEEDMWGDEDFTFGAYQPT [S7E]	3.29
YQRPQDWEDMWGDEDFTFGAYQPT [S7W]	1.73
YQRPQDMEDMWGDEDFTFGAYQPT [S7M]	2.37
YQRPQDPEDMWGDEDFTFGAYQPT [S7P]	3.13
YQRPQDQEDMWGDEDFTFGAYQPT [S7Q]	2.9

Variant	protein stability index
YQRPQDGEDMWGDEDFTFGAYQPT [S7G]	2.47
YQRPQDIEDMWGDEDFTFGAYQPT [S7I]	2.99
YQRPQDAEDMWGDEDFTFGAYQPT [S7A]	2.68
YQRPQDLEDMWGDEDFTFGAYQPT [S7L]	2.87
YQRPQDCEDMWGDEDFTFGAYQPT [S7C]	2.34
YQRPQDREDMWGDEDFTFGAYQPT [S7R]	2.71
YQRPQDFEDMWGDEDFTFGAYQPT [S7F]	2.41
YQRPQDTEDMWGDEDFTFGAYQPT [S7T]	2.35
YQRPQDNEDMWGDEDFTFGAYQPT [S7N]	3.2
YQRPQDKEDMWGDEDFTFGAYQPT [S7K]	3.01
YQRPQDYEDMWGDEDFTFGAYQPT [S7Y]	1.74
YQRKQDSEDMWGDEDFTFGAYQPT [P4K]	2.29
YQRAQDSEDMWGDEDFTFGAYQPT [P4A]	2.45
YQRMQDSEDMWGDEDFTFGAYQPT [P4M]	2.74
YQRLQDSEDMWGDEDFTFGAYQPT [P4L]	2.74
YQRQQDSEDMWGDEDFTFGAYQPT [P4Q]	2.54
YQRFQDSEDMWGDEDFTFGAYQPT [P4F]	2.54
YQRWQDSEDMWGDEDFTFGAYQPT [P4W]	2.09
YQRDQDSEDMWGDEDFTFGAYQPT [P4D]	3.39
YQRGQDSEDMWGDEDFTFGAYQPT [P4G]	2.69
YQRTQDSEDMWGDEDFTFGAYQPT [P4T]	2.57
YQRRQDSEDMWGDEDFTFGAYQPT [P4R]	2.26
YQRIQDSEDMWGDEDFTFGAYQPT [P4I]	2.68
YQRNQDSEDMWGDEDFTFGAYQPT [P4N]	2.26

Variant	protein stability index
YQRHQDSEDMWGDEDFTFGAYQPT [P4H]	2.97
YQRVQDSEDMWGDEDFTFGAYQPT [P4V]	2.49
YQRYQDSEDMWGDEDFTFGAYQPT [P4Y]	3.04
YQRCQDSEDMWGDEDFTFGAYQPT [P4C]	2.7
YQRSQDSEDMWGDEDFTFGAYQPT [P4S]	2.54
YQREQDSEDMWGDEDFTFGAYQPT [P4E]	3.56
YQRPADSEDMWGDEDFTFGAYQPT [Q5A]	2.49
YQRPSDSEDMWGDEDFTFGAYQPT [Q5S]	2.98
YQRPDDSEDMWGDEDFTFGAYQPT [Q5D]	3.79
YQRPIDSEDMWGDEDFTFGAYQPT [Q5I]	2.26
YQRPKDSEDMWGDEDFTFGAYQPT [Q5K]	2.01
YQRPCDSEDMWGDEDFTFGAYQPT [Q5C]	2.26
YQRPYDSEDMWGDEDFTFGAYQPT [Q5Y]	2.57
YQRPNDSEDMWGDEDFTFGAYQPT [Q5N]	3.03
YQRPHDSEDMWGDEDFTFGAYQPT [Q5H]	2.44
YQRPVDSEDMWGDEDFTFGAYQPT [Q5V]	2.56
YQRPMDSEDMWGDEDFTFGAYQPT [Q5M]	2.44
YQRPGDSEDMWGDEDFTFGAYQPT [Q5G]	2.99
YQRPRDSEDMWGDEDFTFGAYQPT [Q5R]	2.16
YQRPWDSEDMWGDEDFTFGAYQPT [Q5W]	2.03
YQRPTDSEDMWGDEDFTFGAYQPT [Q5T]	3.18
YQRPLDSEDMWGDEDFTFGAYQPT [Q5L]	2.09
YQRPFDSEDMWGDEDFTFGAYQPT [Q5F]	2.64
YQRPEDSEDMWGDEDFTFGAYQPT [Q5E]	3.76

Variant	protein stability index
YQRPPDSEDMWGDEDFTFGAYQPT [Q5P]	2.52
YQRPQDSEAMWGDEDFTFGAYQPT [D9A]	2.17
YQRPQDSEYMWGDEDFTFGAYQPT [D9Y]	1.87
YQRPQDSEWMWGDEDFTFGAYQPT [D9W]	2.01
YQRPQDSESMWGDEDFTFGAYQPT [D9S]	2.11
YQRPQDSECMWGDEDFTFGAYQPT [D9C]	1.55
YQRPQDSEVMWGDEDFTFGAYQPT [D9V]	1.66
YQRPQDSERMWGDEDFTFGAYQPT [D9R]	2.34
YQRPQDSEPMWGDEDFTFGAYQPT [D9P]	2.02
YQRPQDSEGMWGDEDFTFGAYQPT [D9G]	2.47
YQRPQDSEHMWGDEDFTFGAYQPT [D9H]	2.03
YQRPQDSEFMWGDEDFTFGAYQPT [D9F]	1.92
YQRPQDSEIMWGDEDFTFGAYQPT [D9I]	2.13
YQRPQDSEMMWGDEDFTFGAYQPT [D9M]	1.55
YQRPQDSEKMWGDEDFTFGAYQPT [D9K]	2.01
YQRPQDSEQMWGDEDFTFGAYQPT [D9Q]	2.23
YQRPQDSENMWGDEDFTFGAYQPT [D9N]	2.48
YQRPQDSELMWGDEDFTFGAYQPT [D9L]	1.44
YQRPQDSETMWGDEDFTFGAYQPT [D9T]	2.59
YQRPQDSEEMWGDEDFTFGAYQPT [D9E]	3.21
